We go through one molecule from publication PMC12139779 (bioRxiv, 2025).

For this assay, the target named is T1, Human KLHDC2 (kelch domain, amino acids 1–362) (human, UniProt Q9Y2U9 1-362, biotin (biotinylated with BirA enzyme)).
T1 sequence: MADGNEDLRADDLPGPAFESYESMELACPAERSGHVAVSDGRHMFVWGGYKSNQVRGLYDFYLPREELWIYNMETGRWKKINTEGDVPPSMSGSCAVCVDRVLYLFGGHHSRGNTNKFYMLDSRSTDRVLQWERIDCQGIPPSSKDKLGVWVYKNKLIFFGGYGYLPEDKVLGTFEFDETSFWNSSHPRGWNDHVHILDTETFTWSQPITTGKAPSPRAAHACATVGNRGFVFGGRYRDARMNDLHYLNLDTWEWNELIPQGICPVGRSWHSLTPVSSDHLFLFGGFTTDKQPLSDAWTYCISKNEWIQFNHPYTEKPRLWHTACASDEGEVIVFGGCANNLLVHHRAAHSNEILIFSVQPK
Put plainly: fluorescence polarisation.

B1: SelK 8-mer (SPPPMAGG) (peptide)
peptide: SPPPMAGG
With B1, the binding result was “binds”.
